Results: US20120316071A1 (published 2012)

What was measured:
Assay in all cases: ECL multispot (MSD) assay, antigen spotted on plate, Fab in solution; blank spot of this well 338
[1] = biological target: rHuman Erythropoietin R/Fc Chimera, CF (R&D Systems Cat#963-ER) (human, UniProt P19235 25-250)
[2] = biological target: T1, rHuman Notch-1/Fc Chimera, CF (R&D Systems Cat#3647-TK) (human)
T1 chain: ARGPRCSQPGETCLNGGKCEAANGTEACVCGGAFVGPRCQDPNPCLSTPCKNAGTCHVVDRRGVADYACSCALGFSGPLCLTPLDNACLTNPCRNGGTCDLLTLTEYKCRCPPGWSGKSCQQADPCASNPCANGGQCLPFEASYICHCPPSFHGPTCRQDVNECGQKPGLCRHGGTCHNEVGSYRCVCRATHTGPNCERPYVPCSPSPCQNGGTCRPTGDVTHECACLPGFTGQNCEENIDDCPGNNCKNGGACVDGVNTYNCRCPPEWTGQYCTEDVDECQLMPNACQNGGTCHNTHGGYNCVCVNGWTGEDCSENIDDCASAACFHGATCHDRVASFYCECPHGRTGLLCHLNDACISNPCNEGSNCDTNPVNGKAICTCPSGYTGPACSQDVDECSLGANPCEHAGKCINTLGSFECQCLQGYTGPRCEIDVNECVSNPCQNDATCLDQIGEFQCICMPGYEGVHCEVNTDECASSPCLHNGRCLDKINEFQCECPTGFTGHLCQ

[3] = biological target: rHuman HGF R/c-MET/Fc Chimera, CF (R&D Systems Cat#358-MT/CF) (human, UniProt P08581 25-932)
[4] = biological target: rHuman CD44/Fc Chimera, CF (R&D Systems Cat#3660-CD) (human, UniProt P16070 21-220)
[5] = biological target: rHuman P-Cadherin/Fc Chimera, CF (R&D Systems Cat#861-PC) (human, UniProt P22223 108-654)

Sequence of rHuman HGF R/c-MET/Fc Chimera, CF (R&D Systems Cat#358-MT/CF) (P08581 25-932, change not shown): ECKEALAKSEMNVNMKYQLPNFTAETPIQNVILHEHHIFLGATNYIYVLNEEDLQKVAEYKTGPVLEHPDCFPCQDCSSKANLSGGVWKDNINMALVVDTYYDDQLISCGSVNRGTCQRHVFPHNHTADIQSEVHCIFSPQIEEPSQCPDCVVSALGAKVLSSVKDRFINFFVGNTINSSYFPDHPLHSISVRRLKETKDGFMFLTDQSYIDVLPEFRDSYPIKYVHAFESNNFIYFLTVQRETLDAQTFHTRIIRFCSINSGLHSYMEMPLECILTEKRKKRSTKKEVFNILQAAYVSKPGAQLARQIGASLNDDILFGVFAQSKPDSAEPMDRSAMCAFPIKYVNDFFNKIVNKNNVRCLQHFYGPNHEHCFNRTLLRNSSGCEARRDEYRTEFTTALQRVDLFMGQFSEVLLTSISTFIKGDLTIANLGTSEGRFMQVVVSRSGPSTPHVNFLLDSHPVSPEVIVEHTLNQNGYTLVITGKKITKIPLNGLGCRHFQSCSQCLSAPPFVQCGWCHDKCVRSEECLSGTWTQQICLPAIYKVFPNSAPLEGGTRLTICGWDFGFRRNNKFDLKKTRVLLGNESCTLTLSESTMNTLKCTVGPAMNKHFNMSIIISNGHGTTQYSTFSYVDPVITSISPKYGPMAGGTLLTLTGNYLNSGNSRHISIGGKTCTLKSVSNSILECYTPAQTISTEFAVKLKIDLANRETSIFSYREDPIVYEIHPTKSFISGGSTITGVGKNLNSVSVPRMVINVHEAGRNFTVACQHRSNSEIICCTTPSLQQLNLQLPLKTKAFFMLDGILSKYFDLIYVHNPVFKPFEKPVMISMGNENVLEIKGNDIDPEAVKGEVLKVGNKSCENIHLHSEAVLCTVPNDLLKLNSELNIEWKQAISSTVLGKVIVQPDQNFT
Sequence of rHuman Erythropoietin R/Fc Chimera, CF (R&D Systems Cat#963-ER) (P19235 25-250, change not shown): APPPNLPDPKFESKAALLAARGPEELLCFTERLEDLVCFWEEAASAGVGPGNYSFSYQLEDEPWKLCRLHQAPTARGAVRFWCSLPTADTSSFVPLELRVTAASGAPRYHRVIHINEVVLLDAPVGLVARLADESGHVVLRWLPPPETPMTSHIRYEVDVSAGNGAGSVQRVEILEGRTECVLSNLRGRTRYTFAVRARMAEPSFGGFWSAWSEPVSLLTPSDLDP

- ECL signal [1]: 302
- ECL signal [2]: 125
- ECL signal [3]: 335
- ECL signal [4]: 156
- ECL signal [5]: 265
B1: Fab VH1-46_IGHD6-6*01_IGHJ1*01 S102A/S103P/S104F (APF) & L6_IGKJ1*01 S92C (Fab, V domains shown)
VH: QVQLVQSGAEVKKPGASVKVSCKASGYTFTSYYMHWVRQAPGQGLEWMGIINPSGGSTSYAQKFQGRVTMTRDTSTSTVYMELSSLRSEDTAVYYCAREEYAPFSAEYFQHWGQGTLVTVSS
VL: EIVLTQSPATLSLSPGERATLSCRASQSVSSYLAWYQQKPGQAPRLLIYDASNRATGIPARFSGSGSGTDFTLTISSLEPEDFAVYYCQQRCNWPPWTFGQGTKVEIKR
notes: Fab made in E. coli (heavy chain in plasmid A with CH1, His6 and Flag tags; kappa light chain in plasmid C); also called APF / S92C
